Here are results for two molecules from PMC2192344.

Where two headings read alike, the source gives them in different places.

For data set [1], the target named is T1, His6-Elf-1 (human, UniProt P32519 1-619). The experiment in a line: EMSA. Background: In EMSA bound probe runs differently from free probe, usually more slowly.
For data set [2], the target named is T1, His6-Elf-1. The experiment in a line: EMSA. The source holds these as a separate data set.

T1 sequence (P32519 whole entry): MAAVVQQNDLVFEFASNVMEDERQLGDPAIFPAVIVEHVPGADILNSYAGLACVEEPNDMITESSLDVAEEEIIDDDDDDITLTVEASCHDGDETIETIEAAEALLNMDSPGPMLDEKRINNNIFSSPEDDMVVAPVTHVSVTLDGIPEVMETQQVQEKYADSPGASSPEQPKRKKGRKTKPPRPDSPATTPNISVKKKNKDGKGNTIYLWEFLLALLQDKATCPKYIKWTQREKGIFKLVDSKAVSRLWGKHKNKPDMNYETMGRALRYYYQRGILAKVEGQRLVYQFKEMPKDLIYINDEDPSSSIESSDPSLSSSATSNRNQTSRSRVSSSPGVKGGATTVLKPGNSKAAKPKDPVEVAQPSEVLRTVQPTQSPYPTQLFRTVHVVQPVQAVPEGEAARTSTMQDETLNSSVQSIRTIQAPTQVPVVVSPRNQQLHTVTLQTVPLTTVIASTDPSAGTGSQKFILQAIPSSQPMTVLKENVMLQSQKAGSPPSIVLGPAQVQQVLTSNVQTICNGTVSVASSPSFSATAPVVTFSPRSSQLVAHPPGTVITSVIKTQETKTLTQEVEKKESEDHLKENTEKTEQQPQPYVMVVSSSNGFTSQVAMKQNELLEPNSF

B1: m2 -97/-84 (dsDNA)
DNA 1: AAATACCGGAAGTG
DNA 2: CACTTCCGGTATTT
As to B1, the binding result in data set [1] is on record as “binds”.

B2: m3 -97/-84 (dsDNA)
DNA 1: AAATATCGGAAGTG
DNA 2: CACTTCCGATATTT
Regarding B2, the binding result in data set [2] is “no binding”.
